{"source": "the array DNA melting data of Ke et al.", "data": [{"assay": "melting temperature; melt of duplexes", "conditions": "sodium 0.0675 M; strand 1 µM", "units": {"Tm": "°C"}, "values": [{"substance": "CGACGTGCCCGATGTGCTG+CAGCACATACCGCACGTCG ((((((((...((((((((+))))))))...))))))))", "Tm": 47.7}, {"substance": "CGACGTGCTCGATGTGCTG+CAGCACATCTTGCACGTCG ((((((((..(((((((((+)))))))))..))))))))", "Tm": 53.3}, {"substance": "CGACGTGCAGTATGTGCTG+CAGCACATGCGGCACGTCG ((((((((.(.((((((((+)))))))).).))))))))", "Tm": 55.3}, {"substance": "CGACGTGCCCAATGTGCTG+CAGCACATTGGGCACGTCG (((((((((((((((((((+)))))))))))))))))))", "Tm": 66}, {"substance": "CGACGTGCTATATGTGCTG+CAGCACATGTCGCACGTCG ((((((((.(.((((((((+)))))))).).))))))))", "Tm": 51.4}, {"substance": "CGACGTGCAAAATGTGCTG+CAGCACATATTGCACGTCG ((((((((((.((((((((+)))))))).))))))))))", "Tm": 54.7}, {"substance": "CGACGTGCTTCATGTGCTG+CAGCACATATTGCACGTCG ((((((((...((((((((+))))))))...))))))))", "Tm": 49.1}, {"substance": "CGACGTGCTTGATGTGCTG+CAGCACATTTCGCACGTCG ((((((((...((((((((+))))))))...))))))))", "Tm": 48.5}, {"substance": "CGACGTGCGGAATGTGCTG+CAGCACATGTAGCACGTCG ((((((((...((((((((+))))))))...))))))))", "Tm": 60.4}, {"substance": "CGACGTGCAAAATGTGCTG+CAGCACATAGTGCACGTCG (((((((((..((((((((+))))))))..)))))))))", "Tm": 47}, {"substance": "CGACGTGCATTATGTGCTG+CAGCACATCCCGCACGTCG ((((((((...((((((((+))))))))...))))))))", "Tm": 46.1}, {"substance": "CGACGTGCTCTATGTGCTG+CAGCACATTACGCACGTCG ((((((((...((((((((+))))))))...))))))))", "Tm": 47.8}, {"substance": "CGACGTGCGTGATGTGCTG+CAGCACATCTCGCACGTCG (((((((((.(((((((((+))))))))).)))))))))", "Tm": 61.3}, {"substance": "CGACGTGCCATATGTGCTG+CAGCACATGCTGCACGTCG ((((((((...((((((((+))))))))...))))))))", "Tm": 46.7}, {"substance": "CGACGTGCCACATGTGCTG+CAGCACATCCCGCACGTCG ((((((((...((((((((+))))))))...))))))))", "Tm": 46.3}, {"substance": "CGACGTGCTACATGTGCTG+CAGCACATCGGGCACGTCG ((((((((...((((((((+))))))))...))))))))", "Tm": 49.5}, {"substance": "CGACGTGCCGAATGTGCTG+CAGCACATGCCGCACGTCG ((((((((.(.((((((((+)))))))).).))))))))", "Tm": 51.5}, {"substance": "CGACGTGCCTTATGTGCTG+CAGCACATCCCGCACGTCG ((((((((...((((((((+))))))))...))))))))", "Tm": 46.8}, {"substance": "CGACGTGCCCGATGTGCTG+CAGCACATAGTGCACGTCG ((((((((.(.((((((((+)))))))).).))))))))", "Tm": 48}, {"substance": "CGACGTGCGGAATGTGCTG+CAGCACATGGTGCACGTCG ((((((((...((((((((+))))))))...))))))))", "Tm": 52.2}, {"substance": "CGACGTGCCGAATGTGCTG+CAGCACATGTCGCACGTCG ((((((((...((((((((+))))))))...))))))))", "Tm": 51.4}, {"substance": "CGACGTGCTTAATGTGCTG+CAGCACATTTGGCACGTCG ((((((((..(((((((((+)))))))))..))))))))", "Tm": 53.4}, {"substance": "CGACGTGCGGCATGTGCTG+CAGCACATCAGGCACGTCG ((((((((...((((((((+))))))))...))))))))", "Tm": 51}, {"substance": "CGACGTGCGATATGTGCTG+CAGCACATGCTGCACGTCG ((((((((...((((((((+))))))))...))))))))", "Tm": 49.8}, {"substance": "CGACGTGCTTTATGTGCTG+CAGCACATATCGCACGTCG ((((((((..(((((((((+)))))))))..))))))))", "Tm": 49.1}, {"substance": "CGACGTGCGGTATGTGCTG+CAGCACATTGGGCACGTCG ((((((((...((((((((+))))))))...))))))))", "Tm": 49.8}, {"substance": "CGACGTGCGCCATGTGCTG+CAGCACATGGTGCACGTCG ((((((((.((((((((((+)))))))))).))))))))", "Tm": 62.5}, {"substance": "CGACGTGCGTGATGTGCTG+CAGCACATTCTGCACGTCG ((((((((...((((((((+))))))))...))))))))", "Tm": 51.8}, {"substance": "CGACGTGCCGGATGTGCTG+CAGCACATTATGCACGTCG ((((((((...((((((((+))))))))...))))))))", "Tm": 49.7}, {"substance": "CGACGTGCATGATGTGCTG+CAGCACATTGTGCACGTCG (((((((((..((((((((+))))))))..)))))))))", "Tm": 53.2}, {"substance": "CGACGTGCAGCATGTGCTG+CAGCACATGGGGCACGTCG ((((((((..(((((((((+)))))))))..))))))))", "Tm": 56.9}, {"substance": "CGACGTGCGCGATGTGCTG+CAGCACATGCCGCACGTCG (((((((((..((((((((+))))))))..)))))))))", "Tm": 55.9}, {"substance": "CGACGTGCCCTATGTGCTG+CAGCACATGATGCACGTCG ((((((((...((((((((+))))))))...))))))))", "Tm": 48.6}, {"substance": "CGACGTGCCCGATGTGCTG+CAGCACATACTGCACGTCG ((((((((...((((((((+))))))))...))))))))", "Tm": 48.7}, {"substance": "CGACGTGCGGTATGTGCTG+CAGCACATTGTGCACGTCG ((((((((...((((((((+))))))))...))))))))", "Tm": 47.2}, {"substance": "CGACGTGCTATATGTGCTG+CAGCACATAAGGCACGTCG ((((((((..(((((((((+)))))))))..))))))))", "Tm": 52.5}]}]}
